Residue numbers refer to the chain shown, from its start. Each block holds one binder with its values, some of them ahead of it.
Target: T1, MUC1 60-mer peptide NH2-(…)3-COOH (biotinylated in the ELISAs and selections)
T1 construct: also called biotinylated MUC1 60-mer
Test: ELISA, soluble Fab, biotinylated MUC1 60-mer; relative signal
Protocol: Soluble Fabs were produced as described (Roovers et al., Br. J. Cancer, 78: 1407-16 (1998)). ELISAs were performed as described by Henderikx et al. (Cancer Res., 58: 4324-4332 (1998)), except the biotinylated MUC1 60-mer was used. The selected PH1 and the affinity-matured antibodies were evaluated for affinity by surface plasmon resonance (SPR) on a BIAcore 2000 apparatus (BIAcore AB, Uppsala, Sweden). Channels of a biotin chip were coated with a MUC1 15-mer, containing the minimal PH1 epitope, PAP, (Ac-PDTRPAPGSTAPPAL-NH₂, (SEQ ID NO:40) 50 RU or 320 RU) or a 60-mer (NH₂-([…])₃-COOH (i.e., containing three copies of SEQ ID NO:8 (von Mensdorff-Pouilly et al., Tumor Biol., 19: 186-195 (1998), 50 RU) in HBS-EP buffer (Pharmacia). One surface was blocked with biotin (15 RU) and used as a negative control. The antibodies were injected in HBS-EP buffer. To minimize rebinding of the antigen binding fragments, the flow speed was 30 μl/sec. Affinity calculation was performed with the BIA-evaluation software provided by the BIAcore. The affinities of the Fabs were calculated according to a 1:1 stoichiometry at steady state.

T1 sequence (peptide, as listed by the source): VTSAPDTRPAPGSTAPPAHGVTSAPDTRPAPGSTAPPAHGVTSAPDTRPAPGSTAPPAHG

B1: 3A7 (Fab, V domains shown)
VH: QVQLVQSGGGLVQPGGSLRLSCAASGFTFRSNAMGWVRQAPGKGLEWVSGISGSGGSTYYADSVKGRFTISRDNSKNTLYLQMNSLRAEDTAVYYCAKHTGGGVWDPIDKWGQGTLVTVSS
VL: EIVLTQSPLSLPVTPGEPASISCRSSQSLLHSNGYTYLDWYLQKPGQSPQLLIYSGSHRASGVPDRFSGSVSGTDFTLRISRVEAEDVGVYYCMQGLQSPFTFGPGTKVDIKR
notes: PH1 Fab variant
binding result: binds

B2: 10A9 (Fab, V domains shown)
VH: B1 VH with D109H, K110N
VL: B1 VL
notes: PH1 Fab variant
binding result: binds

B3: 3D1 (Fab, V domains shown)
VH: B1 VH with K98Q, D109G, K110Y
VL: B1 VL
notes: PH1 Fab variant
binding result: binds

B4: 3B8 (Fab, V domains shown)
VH: B1 VH with G102A, K110Y
VL: B1 VL
notes: PH1 Fab variant
binding result: binds

B5: 10F9 (Fab, V domains shown)
VH: B1 VH with D106N, D109G, K110H
VL: B1 VL
notes: PH1 Fab variant
binding result: binds

B6: 6C5 (Fab, V domains shown)
VH: B1 VH with A97V, D109V, K110Y
VL: B1 VL
notes: PH1 Fab variant
binding result: binds

B7: 6B6 (Fab, V domains shown)
VH: B1 VH with D109G, K110Y
VL: B1 VL
notes: PH1 Fab variant
binding result: binds

B8: 11F7 (Fab, V domains shown)
VH: B1 VH with G102V, I108M, D109N, K110Y
VL: B1 VL
notes: PH1 Fab variant
binding result: binds

B9: 3F7 (Fab, V domains shown)
VH: B1 VH with D109Y, K110Y
VL: B1 VL
notes: PH1 Fab variant
binding result: binds

B10: 7B5 (Fab, V domains shown)
VH: B1 VH with D109A, K110Y
VL: B1 VL
notes: PH1 Fab variant
binding result: binds

B11: 3F3 (Fab, V domains shown)
VH: B1 VH with G102R, K110Y
VL: B1 VL
notes: PH1 Fab variant
binding result: binds

B12: 10F3 (Fab, V domains shown)
VH: B1 VH with D109V, K110P
VL: B1 VL
notes: PH1 Fab variant
binding result: binds

B13: 11C1 (Fab, V domains shown)
VH: B1 VH with G102E, D109K, K110Y
VL: B1 VL
notes: PH1 Fab variant
binding result: binds

B14: 3B9 (Fab, V domains shown)
VH: B1 VH with I108L, D109G, K110Y
VL: B1 VL
notes: PH1 Fab variant
binding result: binds

B15: 10E1 (Fab, V domains shown)
VH: B1 VH with D109A, K110Y
VL: B1 VL
notes: PH1 Fab variant
binding result: binds

B16: 7D1 (Fab, V domains shown)
VH: B1 VH with D109K, K110H
VL: B1 VL
notes: PH1 Fab variant; also called clone 7D1
binding result: binds

B17: 10F8 (Fab, V domains shown)
VH: B1 VH with I108M, D109H, K110Y
VL: B1 VL
notes: PH1 Fab variant
binding result: binds

B18: 3H2 (Fab, V domains shown)
VH: B1 VH with I108M, K110Y
VL: B1 VL
notes: PH1 Fab variant
binding result: binds

B19: 5A6 (Fab, V domains shown)
VH: B1 VH with A97V, K110Y
VL: B1 VL
notes: PH1 Fab variant
binding result: binds

B20: 10E10 (Fab, V domains shown)
VH: B1 VH with D106N, K110Y
VL: B1 VL
notes: PH1 Fab variant
binding result: binds

B21: 10B3 (Fab, V domains shown)
VH: B1 VH with D109G, K110Y
VL: B1 VL
notes: PH1 Fab variant
binding result: binds

B22: 11B9 (Fab, V domains shown)
VH: B1 VH with K98R, D109N, K110Y
VL: B1 VL
notes: PH1 Fab variant
binding result: binds

B23: 11G9 (Fab, V domains shown)
VH: B1 VH with D109G, K110Y
VL: B1 VL
notes: PH1 Fab variant
binding result: binds

B32: 7F3 (Fab, V domains shown)
VH: B1 VH with K98I, D109K, K110Y
VL: B1 VL
notes: PH1 Fab variant; also called clone 7F3
binding result: binds

Second part, the binder after the results:

binding result: binds
B24: 10C10 (Fab, V domains shown)
VH: B1 VH with G102V, D109K, K110Y
VL: B1 VL
notes: PH1 Fab variant

binding result: binds
B25: 6C10 (Fab, V domains shown)
VH: B1 VH with D109H, K110Y
VL: B1 VL
notes: PH1 Fab variant

binding result: binds
B26: 3G1 (Fab, V domains shown)
VH: B1 VH with K110D
VL: B1 VL
notes: PH1 Fab variant

binding result: binds
B27: 11F2 (Fab, V domains shown)
VH: B1 VH with K98I, G102A, D109R, K110Y
VL: B1 VL
notes: PH1 Fab variant

binding result: binds
B28: 3F4 (Fab, V domains shown)
VH: B1 VH with D109A, K110N
VL: B1 VL
notes: PH1 Fab variant

binding result: binds
B29: 8F5 (Fab, V domains shown)
VH: B1 VH with D109A, K110Y
VL: B1 VL
notes: PH1 Fab variant

binding result: binds
B30: 3H1 (Fab, V domains shown)
VH: B1 VH with I108F, D109A, K110Y
VL: B1 VL
notes: PH1 Fab variant

binding result: binds
B31: 6B3 (Fab, V domains shown)
VH: B1 VH with D109G, K110H
VL: B1 VL
notes: PH1 Fab variant

binding result: binds
B33: 6A9 (Fab, V domains shown)
VH: B1 VH with G102S, D109N, K110Y
VL: B1 VL
notes: PH1 Fab variant

binding result: binds
B34: 11F4 (Fab, V domains shown)
VH: B1 VH with D109S, K110S
VL: B1 VL
notes: PH1 Fab variant

binding result: binds
B35: 3D7 (Fab, V domains shown)
VH: B1 VH with G102A, K110Y
VL: B1 VL
notes: PH1 Fab variant

binding result: binds
B36: 3E2 (Fab, V domains shown)
VH: B1 VH with D109A, K110Y
VL: B1 VL
notes: PH1 Fab variant

binding result: binds
B37: 11D4 (Fab, V domains shown)
VH: B1 VH with I108M, D109A, K110S
VL: B1 VL
notes: PH1 Fab variant

binding result: binds
B38: 6E4 (Fab, V domains shown)
VH: B1 VH with I108V, K110Y
VL: B1 VL
notes: PH1 Fab variant

binding result: binds
B39: 6C8 (Fab, V domains shown)
VH: B1 VH with D109N, K110D
VL: B1 VL
notes: PH1 Fab variant

binding result: binds
B40: 11F9 (Fab, V domains shown)
VH: B1 VH with A97T, D109N, K110Y
VL: B1 VL
notes: PH1 Fab variant

binding result: binds
B41: 6F4 (Fab, V domains shown)
VH: B1 VH with A97S, D109G, K110Y
VL: B1 VL
notes: PH1 Fab variant

binding result: binds
B42: 6B5 (Fab, V domains shown)
VH: B1 VH with D109A, K110Y
VL: B1 VL
notes: PH1 Fab variant
